Data taken from PMC8229658 (Viruses, 2021).

Target: T1, Flag-tagged human RuvBL2 (recombinant) (human, UniProt Q9Y230 1-463)
T1 construct: also called Flag-RuvBL2
Experiment: pull-down
Details: both partners purified

T1 sequence (Q9Y230 whole entry): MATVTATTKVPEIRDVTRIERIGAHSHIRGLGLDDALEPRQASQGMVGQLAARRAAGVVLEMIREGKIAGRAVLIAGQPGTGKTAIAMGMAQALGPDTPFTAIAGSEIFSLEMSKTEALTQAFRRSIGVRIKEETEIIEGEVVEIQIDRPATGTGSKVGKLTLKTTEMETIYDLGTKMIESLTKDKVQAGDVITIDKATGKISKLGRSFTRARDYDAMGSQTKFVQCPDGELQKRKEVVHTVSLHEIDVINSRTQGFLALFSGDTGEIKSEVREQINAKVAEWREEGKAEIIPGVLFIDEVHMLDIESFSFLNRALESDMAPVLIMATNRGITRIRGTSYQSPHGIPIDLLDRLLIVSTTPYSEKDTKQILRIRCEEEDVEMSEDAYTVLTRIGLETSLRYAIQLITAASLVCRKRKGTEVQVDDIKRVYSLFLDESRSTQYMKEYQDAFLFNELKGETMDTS

B1: GST-tagged RBD (amino acids 1-73) of the NS1 of PR8 virus (domain or fragment)
chain: MDPNTVSSFQVDCFLWHVRKRVADQELGDAPFLDRLRRDQKSLRGRGSTLGLDIETATRAGKQIVERILKEES
notes: also called GST-RBD
- binding result: binds
